Data from the nanobody polyreactivity screen of Harvey et al. (2022).

Assay: yeast display, Sf9 membrane polyspecificity reagent, FACS + sequencing; frameworks hold sequencing errors
Outline: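 A synthetic nanobody library was expressed on Saccharomyces cerevisiae BJ5465 by galactose induction for 36–48 hours. The library was stained for 1 hour at 4 °C with 10% biotinylated, detergent-solubilized Sf9 membrane reagent and enriched with streptavidin microbeads before FACS. Low and high (top ~1%) gates were set on anti-HA fluorescence for expression and streptavidin fluorescence for reagent binding, and each polyreactivity label reflects the gate of origin.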

Sequence	polyreactivity (PSR sort gate)
QVQLVESGGGLVQAGGSLRLSCAASGIIFYDNAMGWYRQAPGKERELVAAISWGGGDTYYADSVKGRFTISRDNAKNTVYLQMNSLKPEDTAVYYCAAGNLPDYDYWGQGTQVTVSS	low polyreactivity
QVQLVESGGGLVQAGGSLRLSCAASGIIFYDYAMGWYREAPGKERVLVGAISRSGGSTYYADSVKGRFTISRDNAKYTVYLQMNCLKPEDTAVYYCNAKYPFRKKYYYWGQGTQVTVAS	high polyreactivity
QVQLVESGGGLVQAGGSLRLSCAASGIIFYDYAMGWYRQAPGKERELVAAISGSGVGTYYADSVKGRFTISRDNAKNTVYLQMNSLKPEDTAVYYCATRYQWGGPYYRYDYWGQGTQVTVSS	high polyreactivity
QVQLVESGGGLVQAGGSLRLSCAASGIIFYDYAMGWYRQAPGKERELVAAITSNGDNTYYADSVKGRFTISRDNAKNTVYLQMNSLKPEDTAVYYCAVDGSFAADFDNYLEEYGYWGQGTLVTVSS	low polyreactivity
QVQLVESGGGLVQAGGSLRLSCAASGIIFYDYAMGWYRQAPGKERELVAAITSNGDNTYYADSVKGRFTISRDNAKNTVYLQMNSLKPEDTAVYYCAVDGSFAADFDNYLEEYGYWGQGTQVSVSS	low polyreactivity
QVQLVESGGGLVQAGGSLRLSCAASGIIFYDYAMGWYRQAPGKERELVASISWSSGSTYYADSVKGRFTISRDNAKNTVYLQMNSLKPEDTAVYYCAADGYPLQLYNYWGQGTQVTVSS	low polyreactivity
QVQLVESGGGLVQAGGSLRLSCAASGIIFYEYVMGWYRQAPGKERELVATISSIGGSTYYADSVKGRFTISRDNAKNTVYLQMNSLKPEDTAVYYCAADPDPVVSRGGNWYGDDYWGQGTQVTVSS	high polyreactivity
QVQLVESGGGLVQAGGSLRLSCAASGIIFYGNVMGWYRQAPGKERELVAAITSTGSTSYADSVKGRFTMSRDNGKNTVYLQMNSLKPEDTAVYYCAADNAVWEYDYWGQGTQVTVSS	low polyreactivity
QVQLVESGGGLVQAGGSLRLSCAASGIIFYGYAMGWYRQAPGKERELVAGISSGGSTYYADSVKGRFTISRDNAKNTVYLQMNSLKPVDTAVSYCNADGGYSYESTDHYGYDYWGQGTQVTVSS	low polyreactivity
QVQLVESGGGLVQAGGSLRLSCAASGIIFYGYVMGWYRQAPGKERELVATSTSSGGSTYYADSVKGRFTISRDNAKNTGYLQMNSLKPEDTAVYYCAADYDYGAWVRHDYWGQGTQVTVSS	low polyreactivity
QVQLVESGGGLVQAGGSLRLSCAASGIIFYKNAMGWYRQAPGKDRELVAAISGSGGRTYYADSVTGRFTISRDNGKNTVYFQMNSLKPEDTAVYYCAARQPYRHGYESWGQGSQVTVSS	high polyreactivity
QVQLVESGGGLVQAGGSLRLSCAASGIIFYLYAMGWYRQAPGKERELVAAISRRGGSTYYADSVKGRFTISRDKAKNTVYLQMNSLKPEDTAVYYCAATIGTFGYGYWGQGTQVTVSS	high polyreactivity
QVQLVESGGGLVQAGGSLRLSCAASGIIFYPNAMGWYRQAPGKERELVAAITSDGSTYYADSVKGRFTISRDNAMNTVYLQMNSLKPDDTAVYYCAAWDDYGYDYWGQGTQVTVSS	low polyreactivity
QVQLVESGGGLVQAGGSLRLSCAASGIIFYRNAMGWYRQAPGKERELVAAISSSGGRTYYADSVKGRFTISRDNAKNTVYLQMNSLKPEDTAVYYCAADYQWFWVWYGYWGQGTQVTVSS	high polyreactivity
QVQLVESGGGLVQAGGSLRLSCAASGIIFYRNTMGWYRQAPGKERELVASISRGGSTYYADSVKGRFTISRDNAKNTVYLPMNTLKPEDTAVYYCSTSGPQDYSRNFDYWGQGTQVTVSS	low polyreactivity
QVQLVESGGGLVQAGGSLRLSCAASGIIFYRYAMGWYRQAPGKERELVAAISSSGTNTYYADSVKGRFTISRDNAKNTVYLQMNSLKPEDTAVYYCNSDTWADRSTYDYWGQGTQVTVSS	low polyreactivity
QVQLVESGGGLVQAGGSLRLSCAASGIIFYRYAMGWYRQAPGKERELVARITSSTGSTYYADSVKGRFTISRDNAKNTVYLQMNSLKPEDTAVYYCNARRQRNKSYNYWGQGTQVTVSS	high polyreactivity
QVQLVESGGGLVQAGGSLRLSCAASGIIFYVNDMGWYREAPGKVRELVADISGGTSTNYADSVKGRFTISRDNAKNTVYLQMNSLKPEDTAVYYCATAFIVPFPGSDYWGQGTQVTVSS	low polyreactivity
QVQLVESGGGLVQAGGSLRLSCAASGIIFYWYAMGWYRQAPGKERELVAAITRVGSTNYADSVKGRFTISRDNAKNTVYLQMNSLKPEDTAVYYCAADLWQRHYLVGFGIRYDYWGQGTQVTVSS	low polyreactivity
QVQLVESGGGLVQAGGSLRLSCAASGIIFYYNAMGWYRQAPGKERELVAAISSSGGSTSYADSVKGRFTISRDNAKNTVFLQMNSLKPEDTAVYYCAADSYPAYLGFVGFDYWGQGTQVTVSS	low polyreactivity
QVQLVESGGGLVQAGGSLRLSCAASGIIFYYYAMGWYRQAPGKERELVAAISTSGGRTYYADSVKGRFTISRDNAKNTVYLQMNSLKPEDTAVYYCAKDFWYVTGGWSSGMDYWGQGTQVTVSS	low polyreactivity
QVQLVESGGGLVQAGGSLRLSCAASGIIFYYYAMGWYRQAPGKERELVAAISWSGGSTYYADSVKGRFTISRDNAKNTVYLQMNSLKPEDTAVYYCAASSTSGYDWGQGTQVTVSS	low polyreactivity

Sequence	polyreactivity (PSR sort gate)
QVQLVESGGGLVQAGGSLRLSCAASGIIFYYYDMGWYRQAPGKERELVAAISWGAGDTYYADSVKGRFTISRDNAKNTVYLQMNSLKPEDTAVYYCAAEFSRSDYQEYDYWGQGTQVTVSS	low polyreactivity
QVQLVESGGGLVQAGGSLRLSCAASGIIIAWYAMGWYRQAPGKERELVAAITSGGGSTYYADSVKGRFTISRDNAKNTVYLQMNSLKPEDTAVYYCAADYQTIGWGYDYWGQGTQVTVSS	low polyreactivity
QVQLVESGGGLVQAGGSLRLSCAASGIIIDYYTMGWYRQAPGKERELVAAINKSGGSTYADSVKGRFTISRDNAKNTVYLQMNSLKPEDNAVYYCAAEVDYSYWPEYARKYYYWGQGTQVTVSS	low polyreactivity
QVQLVESGGGLVQAGGSLRLSCAASGIIIGLYGRGWYRQAPGKERELVAAISSSGGSTYYADSVKGRFTISRDNAKNTVYLQINSLKPEDTAVYYCARVVRSLWGGLYLYDYWGQGTQVTVSS	low polyreactivity
QVQLVESGGGLVQAGGSLRLSCAASGIIIHSYTMGWYRPAPGKERELVAAISTSGSTYYADSVKGRFTISRDNAKNTVYLQMHILKPEDTAVYYCNADYAQSGTNSQVGKYGYWGQGTQVTVSS	high polyreactivity
QVQLVESGGGLVQAGGSLRLSCAASGIIIRKYAMGWYRQAPGKERELVAAITTRGSRTYYADSVKGRFTISRDNAKNTVYLQMNSLKPEDTAVYYCAADRYTVRMDYWGQGTQVTVSS	high polyreactivity
QVQLVESGGGLVQAGGSLRLSCAASGIIIRRYAMGWSRQAPGKERELVAAISWSGGSTYYADSVKGRFTISRDNAKNTVDLQMNSLKPEDTAVYYCAAAAYTRDEYDYWGQGTQVTVSS	high polyreactivity
QVQLVESGGGLVQAGGSLRLSCAASGIIIRSYAMGWDRQAPGKERELVAAITRSGGSTYADSVKGRFTISRDNAKNTVYLQKNSLKPEDTAVYYCAADRYSGWVYRRDDWGQGTQVPVSS	low polyreactivity
QVQLVESGGGLVQAGGSLRLSCAASGIILGRYAMGWYRQAPGKERELVAAITASGGRTYYADSVKWRFTISRDNAKNTVYLQMNSLKPEDTAVYYCNTVYWGYKSHYDYWGQGTQVTVSS	high polyreactivity
QVQLVESGGGLVQAGGSLRLSCAASGIILPYYAMGWYRQAPGKERELVASISQSGSSTYYADSVKGRFTISRDNAKNTVYLQMNSLKPEDTAVYYCNAKPGSWYIRYDYWGQGTQVTVSS	low polyreactivity
QVQLVESGGGLVQAGGSLRLSCAASGIILWYNVMGWYRQAPGKERELVASITGDGDDTYYADSVKGRFTMSRDNAKNTVYLQMNSLKPEDTAVYYCAKENYGILYSTLYDYWGQGTQVTVSS	low polyreactivity
QVQLVESGGGLVQAGGSLRLSCAASGIILYGYARGWYRPAPGKESELVAAISRRGGITYYADTVKARYTISRDNAKNSVYLQMNSLKPEDTAVYYCAADINRRPSYHPDYEYWGQGTQVTVSS	high polyreactivity
QVQLVESGGGLVQAGGSLRLSCAASGIILYRNGMGWYRQAPGKERELVAASSWSTGSTYYADSVKGRFTISRDNAKNTVYLQMNSLKPEDTAVYYCATDYVGYSFGMYYWGQGTQVTVSS	low polyreactivity
QVQLVESGGGLVQAGGSLRLSCAASGIILYVNAMGCYRQAPGKEREFVAAISWGGGSTYYADSVKGRFTISRDNAKNTVYLQMNSLKREDTAVYYCAAEFWSGYPTYTYDYWGQGTQVTVSS	low polyreactivity
QVQLVESGGGLVQAGGSLRLSCAASGIILYYYAMGWYRQAPGKERELVAAINWSGGSTSYADSVKGRFTISRDNAKNTVYLQMNSLKPEDTAVYYCAARLGSWHYQVWNYKYEYWGQGTQVTVSS	high polyreactivity
QVQLVESGGGLVQAGGSLRLSCAASGIIQGVYALGWYRQAPGKERELVAAITSSGGSTYYADSVKGRFTISRDNAKNTVYLQMNSLKPEDTAVYYCAADFDTSVRLYGPTRYDYWGQGTQVTVSS	low polyreactivity
QVQLVESGGGLVQAGGSLRLSCAASGIIRHNAMGCYRPAPGKERELVAGISRRGGSTYYADSVKGRFTISRDNAKNTVYLQMNSLKPEDTAVYYCNARSAGSDLDYWGQGTQVTVSS	high polyreactivity
QVQLVESGGGLVQAGGSLRLSCAASGIISGRNTMGWFRLARGKERELVAAISGSGGSTHYADSVKGRFPSSRDNAKNTVYLQSNSLKPEDTAVYYCAADTAYVYSMDYWGQGTQVTVSS	high polyreactivity
QVQLVESGGGLVQAGGSLRLSCAASGIISRSYTMGWYRQAPGKERELVAVISSSGGSTYYADSVKGRFTISRDNAKNTVYLQMNSLKPEDTAVYYCAARPVTRFQGSDYWGQGTQVTVSS	high polyreactivity
QVQLVESGGGLVQAGGSLRLSCAASGIISRWYAMGWYRQAPGKERELVAAIRWSGGRTYYADSVKGRFTISRDNAKNTVYLQMNSLKPEDTAVYYCAADVRQRGIYGPGPHYYWGQGTQVTVSS	low polyreactivity
QVQLVESGGGLVQAGGSLRLSCAASGIISSVYAMGWSRQAPGKERELVAAISGSGGSTYYADSVKGRFTISRDNAKNTVYLQMNSLKPEDTAVYYCAKGYQYQGNSYGYWGQGTQVTVSS	low polyreactivity
